In assay [1] the target is West Nile virus E protein on WNV strain 2741 virions (West Nile virus, UniProt Q9Q6P4 291-791). Description: cell-based or functional assay.
Assay [2] addresses T1, WNV E protein DIII displayed on yeast (Saccharomyces cerevisiae; West Nile …, UniProt Q9Q6P4 586-705).
T1 construct: domain: DIII; also called WNV DIII
T1 sequence: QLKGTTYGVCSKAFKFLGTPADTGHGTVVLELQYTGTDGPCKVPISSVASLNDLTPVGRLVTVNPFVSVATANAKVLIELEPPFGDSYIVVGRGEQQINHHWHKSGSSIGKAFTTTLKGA
Description: flow cytometry on yeast displaying WNV E DIII (pYD1); % positive cells. A general note: In flow cytometry, cells or beads pass a laser one at a time.

Assay [3] deals with T2, Recombinant WNV-E protein ectodomain (West Nile virus, UniProt Q9Q6P4 291-700).
T2 construct: extracellular domain; also called rWNV-E; WNE
T2 sequence (looked up): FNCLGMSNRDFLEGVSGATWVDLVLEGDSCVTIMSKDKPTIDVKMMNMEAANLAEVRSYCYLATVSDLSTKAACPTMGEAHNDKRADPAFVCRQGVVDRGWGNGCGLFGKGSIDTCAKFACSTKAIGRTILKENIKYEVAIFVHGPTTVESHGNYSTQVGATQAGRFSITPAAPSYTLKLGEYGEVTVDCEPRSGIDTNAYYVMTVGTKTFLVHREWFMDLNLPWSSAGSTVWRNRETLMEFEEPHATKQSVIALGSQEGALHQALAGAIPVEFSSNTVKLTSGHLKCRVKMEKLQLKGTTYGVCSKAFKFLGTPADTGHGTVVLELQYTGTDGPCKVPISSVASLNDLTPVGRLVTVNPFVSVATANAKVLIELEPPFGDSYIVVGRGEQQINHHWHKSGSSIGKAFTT
The assay can be described thus: SPR (Biacore); scFv-Fc captured by goat anti-human IgG on CM4 chip, rWNV-E in solution. In general terms: Surface plasmon resonance follows binding to a sensor surface in real time, without labels.

Assay [4] concerns the target T2, Recombinant WNV-E protein ectodomain.
Assay [5] has the same target. Description: SPR (Biacore 3000); scFv on NTA chip via His tag, rWNV-E in solution.
The target is the same in assay [6]. Description: ELISA; plate coated with rWNV-E (1 ug/ml), purified His6-tagged scFv, anti-His6-HRP, OD450. A general note: In an ELISA, binding on a coated surface is turned into a signal by an enzyme label.

Results on four molecules are retold here after US20090130123A1 (published 2009).

As usually defined, the Kd is a measure of binding affinity in units of concentration. As usually defined, the koff is the rate constant with which the complex falls apart. In general, kon refers to a measure of how fast the partners come together. A word on the EC50 (read off the curve): it is the concentration that produces a half-maximal response.

Read-outs that look alike come from different tables or passages of the source.

West Nile virus E protein on WNV strain 2741 virions, sequence (Q9Q6P4 291-791 limits assumed): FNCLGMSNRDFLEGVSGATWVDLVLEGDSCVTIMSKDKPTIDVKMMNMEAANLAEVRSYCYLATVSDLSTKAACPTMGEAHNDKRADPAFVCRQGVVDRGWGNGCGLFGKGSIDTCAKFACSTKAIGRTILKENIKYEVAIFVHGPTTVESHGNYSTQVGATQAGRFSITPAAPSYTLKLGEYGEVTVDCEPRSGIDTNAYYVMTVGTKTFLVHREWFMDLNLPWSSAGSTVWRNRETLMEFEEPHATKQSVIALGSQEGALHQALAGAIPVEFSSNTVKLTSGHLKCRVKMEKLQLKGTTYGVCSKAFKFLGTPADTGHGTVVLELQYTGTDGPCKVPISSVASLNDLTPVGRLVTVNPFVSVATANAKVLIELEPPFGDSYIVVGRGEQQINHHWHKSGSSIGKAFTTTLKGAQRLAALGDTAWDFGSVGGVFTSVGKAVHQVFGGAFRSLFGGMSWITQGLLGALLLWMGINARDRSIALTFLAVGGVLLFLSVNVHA

B1: 79 scFv-Fc (Fc fusion)
chain: QVQLVQSGAEVKKPGSSVKVSCKASGGTFSSYAISWVRQAPGQGLEWMGWMNSNTGDTGYAQKFQGRVTMTRNTSTSTAYMELSSLRSEDTAVYYCAKISNYHYYAMDVWGQGTLVTVSSGGGGSGGGGSGGGGSLPVLTQPPSASGTSGQTVTISCSGGSSNIGSHLVTWYQQFPGTAPKVLIHTNDQRPSGVPDRISGSKSGTSASLAISGLQSDDEGDYYCAAWDDSLNGYVFGTGTKVTVLG
notes: also called scFv-Fc 79; antibody 79 (scFv-Fc)
As for B1, in assay [1], the “PRNT80 titer (µg/ml), plaque reduction neutralization of WNV on Vero cells” value worked out at 5 µg/mL. In addition, in assay [2], the binding result is “no binding”. Also, in assay [3], the Ka is 7.34e+10 M⁻¹, the Kd stood at 0.0136 nM, the koff was 3.58e-07 s⁻¹ and the kon amounted to 26200 M⁻¹ s⁻¹.

B2: scFv 15 (scFv)
scFv: MAQVQLVQSGAEVKKPGASVKVSCKASGYTFSGYSTHWLRQVPGQGLEWIGWDNPSSGDTTYAENFRGRVTLTRDTSITTDYLEVRGLRSDDTAVYYCARGGDDYSFDHWGQGTLVTVSSGGGGSGGGGSGGGGSQSALTQPASVSGSPGQSITISCTGTNSDVGIYNLVSWYQQHPGKAPKLMIYDVSNRPSGVSSRFSGSNSGNTATLTISGLQAEDEADYYCSAHAGDNTQFGGGTKLTVLSQPKAAPSAAAEQKLISEEDL
notes: also called 15 scFv; antibody 15
As for B2, the “EC50 (read off the curve)” value in assay [4] was around 0.3 µg/mL. Also, in assay [5], the Ka was 1.04e+08 M⁻¹, the Kd was 9.65 nM, the koff was 0.00128 s⁻¹ and the kon was determined as 133000 M⁻¹ s⁻¹.

B3: scFv 79 (scFv)
scFv: MAQVQLVQSGAEVKKPGSSVKVSCKASGGTFSSYAISWVRQAPGQGLEWMGWMNSNTGDTGYAQKFQGRVTMTRNTSTSTAYMELSSLRSEDTAVYYCAKISNYHYYAMDVWGQGTLVTVSSGGGGSGGGGSGGGGSLPVLTQPPSASGTSGQTVTISCSGGSSNIGSHLVTWYQQFPGTAPKVLIHTNDQRPSGVPDRISGSKSGTSASLAISGLQSDDEGDYYCAAWDDSLNGYVFGTGTKVTVLGQPKATPSAAAEQKLISEEDL
notes: also called 79 scFv; antibody 79
Turning to B3, the “EC50 (read off the curve)” value in assay [4] was around 0.4 µg/mL. In assay [5], the Ka amounted to 1.87e+08 M⁻¹, the Kd amounted to 5.35 nM, the koff worked out at 0.00067 s⁻¹ and the kon is 125000 M⁻¹ s⁻¹.

B4: scFv 10 (scFv, not shown: small tags and cut ends)
scFv: MAQVQLVQSGAEVKKPGSSVKVSCKASGYTFSGYSTHWLRQVPGQGLEWIGWDNPSSGDTTYAENFRGRVTLTRDTSITTDYLEVRGLRSDDTAVYYCARGGDDYSFDHWGQGTLVTVSSSGGGSGGGGSGGGGSQTVVTQEPSFSVSPGGTITLTCGLSSGSVFTSYYPSWYQQTPGQAPRTLIYSTNTRSSGVPDRFSGSILGNKAALTITGAQADDESDYYCVLYMGSGIGVFGTGTKVTVLGQPKAAPSAAAEQKLISEEDL
notes: also called 10 scFv; antibody 10
Regarding B4, in assay [5], the Ka came out at 2.64e+07 M⁻¹, the Kd was 37.8 nM, the koff came out at 0.0212 s⁻¹ and the kon worked out at 561000 M⁻¹ s⁻¹. In addition, the “EC50 (read off the curve)” value in assay [6] was around 0.2 µg/mL.
